Laboratory results published in the supplement of paper PMC9112550, “Optimization of the antimicrobial peptide Bac7 by deep mutational scanning” (BMC Biology, 2022).

Test system: Escherichia coli TOP10
Assay: shrunken log2 fold change of peptide-encoding DNA abundance (4.5 h post-induction vs induction); higher = less antimicrobial activity (less host growth inhibition)
Settings: time post-induction: 4.5 h; library: site-saturation at positions 5, 18, 19, 20
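Further: peptides expressed intracellularly from a pBAD plasmid library in pooled LB shake-flask culture, induced with 0.3% L-arabinose, DNA abundance read by NGS, three biological replicates, DESeq2 with apeglm shrinkage.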

Sequence	shrunken log2 fold change
RRIRFRPPRLPRPRPRPDICPRP	-0.0857
RRIRPRPPRLPRPRPRPQDAPRP	0.355
RRIRNRPPRLPRPRPRPTTKPRP	-0.0801
RRIRHRPPRLPRPRPRPCWQPRP	-0.065
RRIRLRPPRLPRPRPRPGIAPRP	-0.206
RRIRKRPPRLPRPRPRPDNMPRP	0.107
RRIRNRPPRLPRPRPRPYTHPRP	-1.12
RRIRFRPPRLPRPRPRPQNVPRP	-0.16
RRIRYRPPRLPRPRPRPEDHPRP	-0.581
RRIRKRPPRLPRPRPRPNDHPRP	-0.177
RRIRHRPPRLPRPRPRPGVVPRP	-0.227
RRIRSRPPRLPRPRPRPLSDPRP	-0.0692
RRIRFRPPRLPRPRPRPHFYPRP	-0.38
RRIRPRPPRLPRPRPRPKSFPRP	-0.0474
RRIRQRPPRLPRPRPRPLVHPRP	-0.203
RRIRSRPPRLPRPRPRPITGPRP	-0.105
RRIRNRPPRLPRPRPRPREAPRP	0.00436
RRIRSRPPRLPRPRPRPRFYPRP	-0.642
RRIRLRPPRLPRPRPRPYFVPRP	-0.65
RRIRDRPPRLPRPRPRPMDPPRP	-0.0367
RRIRNRPPRLPRPRPRPRVWPRP	3.4
RRIRLRPPRLPRPRPRPTHGPRP	0.213
RRIRQRPPRLPRPRPRPWNFPRP	-0.15
RRIRQRPPRLPRPRPRPMERPRP	0.301
RRIRSRPPRLPRPRPRPYTRPRP	-0.304

Sequence	shrunken log2 fold change
RRIRVRPPRLPRPRPRPYTFPRP	-0.314
RRIRTRPPRLPRPRPRPSVIPRP	-0.268
RRIRTRPPRLPRPRPRPKMNPRP	-0.558
RRIRARPPRLPRPRPRPKAVPRP	0.706
RRIRLRPPRLPRPRPRPSRRPRP	-0.332
RRIRIRPPRLPRPRPRPKPWPRP	0.192
RRIRMRPPRLPRPRPRPSPGPRP	0.564
RRIRVRPPRLPRPRPRPSMQPRP	-0.223
RRIRVRPPRLPRPRPRPKDLPRP	0.0892
RRIRNRPPRLPRPRPRPGVGPRP	0.402
RRIRPRPPRLPRPRPRPGWSPRP	0.0867
RRIRPRPPRLPRPRPRPWLWPRP	0.0404
RRIRMRPPRLPRPRPRPMAIPRP	0.227
RRIRNRPPRLPRPRPRPRYMPRP	-1.3
RRIRQRPPRLPRPRPRPEPKPRP	0.244
RRIRDRPPRLPRPRPRPEIMPRP	0.245
RRIRWRPPRLPRPRPRPCMYPRP	-0.325
RRIRGRPPRLPRPRPRPVPAPRP	1
RRIRIRPPRLPRPRPRPMDIPRP	-0.911
RRIRRRPPRLPRPRPRPREYPRP	0.2
RRIRVRPPRLPRPRPRPFVSPRP	-0.679
RRIRRRPPRLPRPRPRPWASPRP	0.289
RRIRGRPPRLPRPRPRPRKWPRP	0.413
RRIRKRPPRLPRPRPRPPYEPRP	0.0908
RRIRCRPPRLPRPRPRPAVAPRP	0.137

Sequence	shrunken log2 fold change
RRIRIRPPRLPRPRPRPPMVPRP	-0.572
RRIRLRPPRLPRPRPRPEPTPRP	-0.00556
RRIRHRPPRLPRPRPRPINPPRP	-0.0815
RRIRERPPRLPRPRPRPQSWPRP	0.104
RRIRPRPPRLPRPRPRPQGVPRP	0.07
RRIRMRPPRLPRPRPRPVSDPRP	2.67
RRIRFRPPRLPRPRPRPPATPRP	0.562
RRIRMRPPRLPRPRPRPKDRPRP	1.87
RRIRRRPPRLPRPRPRPVLPPRP	0.584
RRIRKRPPRLPRPRPRPNKDPRP	0.0544
RRIRFRPPRLPRPRPRPANPPRP	-0.156
RRIRFRPPRLPRPRPRPYEQPRP	0.00332
RRIRARPPRLPRPRPRPNRWPRP	0.331
RRIRCRPPRLPRPRPRPEWIPRP	-0.151
RRIRPRPPRLPRPRPRPHDEPRP	-0.0869
RRIRMRPPRLPRPRPRPCLWPRP	0.0121
RRIRFRPPRLPRPRPRPPSRPRP	0.551
RRIRGRPPRLPRPRPRPLVQPRP	0.802
RRIRDRPPRLPRPRPRPWSFPRP	0.0765
RRIRKRPPRLPRPRPRPIYCPRP	-0.0201
RRIRQRPPRLPRPRPRPRERPRP	0.553
RRIRTRPPRLPRPRPRPSNVPRP	-0.337
RRIRNRPPRLPRPRPRPYGMPRP	-0.331
RRIRDRPPRLPRPRPRPKCEPRP	-0.351
RRIRQRPPRLPRPRPRPQSEPRP	-0.173
